# According to patent publication US20250304709A1 (Eli Lilly, published 2025):
# B1: Exemplified multispecific binding molecule MBM1 with conjugated siRNA (MBM1*) (bispecific antibody, human IgG4 S228P, kappa, F234A L235A)
# heavy 1: not shown
# light 1: ALDMTQTASPVSAAVGGTVTINCQSSQSVYNNNRLAWYQQKPGQPPKLLIYDASTLASGVPSRFKGSGSGTQFTLTISGVQSDDSATYYCQGTYFSSGWSWAFGGGTEVVVKRTVAAPSVFIFPPSDEQLKSGTASVVCLLNNFYPREAKVQWKVDNALQSGNSQESVTEQDSKDSTYSLSSTLTLSKADYEKHKVYACEVTHQGLSSPVTKSFNRGEC
# heavy 2: EVQLVESGGGVVQPGRSLRLSCAASGFTFSRFGMHWVRQAPGKGLEWVAFISNDGSNKYYADSVKGRFTISRDNSKNTLYLQMNSLRPEDTAVYYCARGRAYGSGSLFDPWGQGTLVTVSSASTKGPCVFPLAPCSRSTSESTAALGCLVKDYFPEPVTVSWNSGALTSGVHTFPAVLQSSGLYSLSSVVTVPSSSLGTKTYTCNVDHKPSNTKVDKRVESKYGPPCPPCPAPEAAGGPSVFLFPPKPKDTLMISRTPEVTCVVVDVSQEDPEVQFNWYVDGVEVHNAKTKPREEQFNSTYRVVSVLTVLHQDWLNGKEYKCKVSNKGLPSSIEKTISKAKGQPREPQVYTLPPSQEEMTKNQVSLTCLVKGFYPSDIAVEWESNGQPENNYKTTPPVLDSDGSFLLYSKLTVDKSRWQEGNVFSCSVMHEALHNHYTQKSLSLSLG
# light 2: DIQMTQSPSSLSASVGDRVTITCKASQGISRFLSWFQQKPGKAPKSLIYAVSSLVDGVPSRFSGSGSGTDFTLTISSLQPEDFATYYCVQYNSYPYGFGGGTKVEIKRTVAAPSVFIFPPSDEQLKSGTASVVCLLNNFYPREAKVQWKVDNALQSGNSQESVTEQDSKDSTYSLSSTLTLSKADYEKHKVYACEVTHQGLSSPVTKSFNRGEC
# modifications: conjugated siRNA (denoted by *); site not stated for the SPR sample; elsewhere 'siRNA linked at HC Constant region 1'
# notes: Same four chains as MBM1, with siRNA conjugated
# B2: Exemplified multispecific binding molecule MBM1 (heterodimeric IgG antibody, TFR arm and L1CAM arm) (bispecific antibody)
# heavy 1: not shown
# light 1: B1 light 1
# heavy 2: B1 heavy 2
# light 2: B1 light 2
# notes: without siRNA; also called BD1 + BD9
# Legend:
# mouse L1CAM-hIgG1-Fc [1] = biological target: T1, mouse L1CAM-hIgG1-Fc (mouse; human, UniProt P11627 20-1123, limits assumed); test: SPR, Biacore T200, 25 C, MBM captured by human Fab capture kit, target as analyte, 1:1 fit
# T1 construct: also called mL1CAM; not shown: human IgG1 Fc
# Procedure: (§1) A human Fab capture kit (Cytiva P/N 28958325) is immobilized on a CM5 chip (Cytiva P/N 29104988) using standard NHS-EDC amine coupling on all four flow cells (Fc). Multispecific binding molecules (“MBM1” of Table 2, with or without conjugated siRNA (denoted by *) as described above) are prepared at 10 μg/mL by dilution into running buffer. Target (e.g., mouse TFR-mIgG1-Fc, mouse L1CAM-hIgG1-Fc and human L1CAM-hIgG1-Fc, respectively) are prepared at final concentrations of 100.0, 25.0, 6.25, 1.56, 0.39, 0.097, 0.024 and 0 (blank) nM by dilution into running buffer.
# (§2) Each analysis cycle consists of (1) capturing multispecific binding molecule samples on separate flow cells (Fc2, Fc3 and Fc4); (2) injection of the respective concentration for the blood brain barrier target (e.g., TFR) over all Fc at 10 μL/min for 60 seconds followed by return to buffer flow for 1800 seconds to monitor dissociation phase; (3) injection of each human L1CAM concentration over all Fc at 100 μL/min for 120 seconds followed by return to buffer flow for 1200 seconds to monitor dissociation phase; (4) regeneration of chip surfaces with injection of 10 mM glycine, pH 1.5, for 30 seconds at 10 μL/min over all cells; and (5) equilibration of chip surfaces with a 10 μL (60-sec) injection of HBS-EP+. Data are processed using standard double-referencing and fit to a 1:1 binding model using Biacore T200 Evaluation software, version 2.0.3, to determine the association rate (kₒₙ, M⁻¹s⁻¹ units), dissociation rate (koff, s⁻¹ units), and Rₘₐₓ (RU units). The equilibrium dissociation constant (KD) is calculated from the relationship KD=koff/kₒₙ, and presented in molar units.
# human L1CAM-hIgG1-Fc [2] = biological target: T2, human L1CAM-hIgG1-Fc (human, UniProt P32004 20-1120, limits assumed); test: as above
# T2 construct: also called hL1CAM; not shown: human IgG1 Fc
# Procedure: as §1, §2
# mouse L1CAM-hIgG1-Fc [3] = biological target: T1, mouse L1CAM-hIgG1-Fc; test: SPR, Biacore T200, 25 C, MBM captured by human Fab capture kit, KD=koff/kon (column head prints pM; text says molar units)
# Procedure: as §1, §2
# human L1CAM-hIgG1-Fc [4] = biological target: T2, human L1CAM-hIgG1-Fc; test: as above
# Procedure: as §1, §2
# mouse L1CAM-hIgG1-Fc [5] = biological target: T1, mouse L1CAM-hIgG1-Fc; test: SPR, Biacore T200, 25 C, MBM captured by human Fab capture kit, target as analyte, 1:1 fit (column head also prints '(10^-4)', not applied a second time)
# Procedure: as §1, §2
# human L1CAM-hIgG1-Fc [6] = biological target: T2, human L1CAM-hIgG1-Fc; test: as above
# Procedure: as §1, §2
# T2 sequence (P32004 20-1120 limits assumed): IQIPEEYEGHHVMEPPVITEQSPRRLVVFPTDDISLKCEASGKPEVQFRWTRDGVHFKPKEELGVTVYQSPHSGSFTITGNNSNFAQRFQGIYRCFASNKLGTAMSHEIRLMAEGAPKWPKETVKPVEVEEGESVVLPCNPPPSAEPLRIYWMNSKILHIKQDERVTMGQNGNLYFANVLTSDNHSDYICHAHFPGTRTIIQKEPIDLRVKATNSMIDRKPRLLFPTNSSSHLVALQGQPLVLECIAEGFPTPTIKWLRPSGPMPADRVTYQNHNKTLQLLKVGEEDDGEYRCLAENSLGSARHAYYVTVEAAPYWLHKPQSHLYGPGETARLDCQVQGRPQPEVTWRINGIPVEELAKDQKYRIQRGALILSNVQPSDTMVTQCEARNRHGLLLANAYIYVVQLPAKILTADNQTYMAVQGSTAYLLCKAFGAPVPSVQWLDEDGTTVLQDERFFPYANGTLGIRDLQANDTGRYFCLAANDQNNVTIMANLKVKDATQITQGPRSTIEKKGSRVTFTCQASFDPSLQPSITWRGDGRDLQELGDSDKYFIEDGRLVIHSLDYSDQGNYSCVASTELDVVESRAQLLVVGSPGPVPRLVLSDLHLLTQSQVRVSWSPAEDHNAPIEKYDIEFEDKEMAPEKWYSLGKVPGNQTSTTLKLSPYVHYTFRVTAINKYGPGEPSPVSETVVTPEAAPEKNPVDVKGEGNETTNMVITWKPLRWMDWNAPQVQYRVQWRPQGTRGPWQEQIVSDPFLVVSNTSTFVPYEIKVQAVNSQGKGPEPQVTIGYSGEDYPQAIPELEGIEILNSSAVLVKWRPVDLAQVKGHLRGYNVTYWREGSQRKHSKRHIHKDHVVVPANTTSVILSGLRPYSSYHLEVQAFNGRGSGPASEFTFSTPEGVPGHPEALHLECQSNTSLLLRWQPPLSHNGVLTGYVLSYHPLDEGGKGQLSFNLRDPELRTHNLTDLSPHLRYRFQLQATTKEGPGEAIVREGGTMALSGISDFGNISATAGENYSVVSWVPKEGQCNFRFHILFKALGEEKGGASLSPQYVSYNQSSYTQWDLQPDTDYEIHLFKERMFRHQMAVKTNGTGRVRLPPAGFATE
# T1 sequence (P11627 20-1123 limits assumed): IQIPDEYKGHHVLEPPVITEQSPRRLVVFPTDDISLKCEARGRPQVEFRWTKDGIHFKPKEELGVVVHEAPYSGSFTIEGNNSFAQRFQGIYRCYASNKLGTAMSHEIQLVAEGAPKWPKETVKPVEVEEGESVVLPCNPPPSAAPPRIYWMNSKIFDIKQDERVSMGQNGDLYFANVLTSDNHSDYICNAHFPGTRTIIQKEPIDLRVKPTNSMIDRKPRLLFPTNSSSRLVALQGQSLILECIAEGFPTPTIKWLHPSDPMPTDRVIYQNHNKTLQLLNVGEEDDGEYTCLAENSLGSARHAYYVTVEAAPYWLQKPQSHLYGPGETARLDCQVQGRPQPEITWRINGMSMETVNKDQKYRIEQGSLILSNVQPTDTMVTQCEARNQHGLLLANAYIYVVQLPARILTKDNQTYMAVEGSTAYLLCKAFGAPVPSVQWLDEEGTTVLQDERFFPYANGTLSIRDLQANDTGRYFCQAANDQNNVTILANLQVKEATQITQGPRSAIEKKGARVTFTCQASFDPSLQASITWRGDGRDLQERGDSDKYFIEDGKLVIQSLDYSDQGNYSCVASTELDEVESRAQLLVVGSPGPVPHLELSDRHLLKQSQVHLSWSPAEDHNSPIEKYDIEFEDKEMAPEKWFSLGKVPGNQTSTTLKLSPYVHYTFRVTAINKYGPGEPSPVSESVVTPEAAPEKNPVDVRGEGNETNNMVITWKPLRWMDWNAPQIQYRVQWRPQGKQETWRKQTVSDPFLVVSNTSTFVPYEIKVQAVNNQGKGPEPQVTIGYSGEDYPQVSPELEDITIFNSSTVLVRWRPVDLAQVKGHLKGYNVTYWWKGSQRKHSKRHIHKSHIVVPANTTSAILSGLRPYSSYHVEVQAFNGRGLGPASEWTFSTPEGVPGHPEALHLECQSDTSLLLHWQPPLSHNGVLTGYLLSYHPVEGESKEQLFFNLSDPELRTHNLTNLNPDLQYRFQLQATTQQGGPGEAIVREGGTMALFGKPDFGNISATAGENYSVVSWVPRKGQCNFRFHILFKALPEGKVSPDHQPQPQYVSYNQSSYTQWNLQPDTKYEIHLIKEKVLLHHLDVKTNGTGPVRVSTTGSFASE
binder,measurement,setting,value
B1,kon,mouse L1CAM-hIgG1-Fc [1],220000 M⁻¹ s⁻¹
same,kon,human L1CAM-hIgG1-Fc [2],260000 M⁻¹ s⁻¹
same,Kd,mouse L1CAM-hIgG1-Fc [3],1.2 nM
same,Kd,human L1CAM-hIgG1-Fc [4],0.89 nM
same,koff,mouse L1CAM-hIgG1-Fc [5],0.00027 s⁻¹
same,koff,human L1CAM-hIgG1-Fc [6],0.00023 s⁻¹
B2,kon,mouse L1CAM-hIgG1-Fc [1],400000 M⁻¹ s⁻¹
same,kon,human L1CAM-hIgG1-Fc [2],430000 M⁻¹ s⁻¹
same,Kd,mouse L1CAM-hIgG1-Fc [3],0.51 nM
same,Kd,human L1CAM-hIgG1-Fc [4],0.27 nM
same,koff,mouse L1CAM-hIgG1-Fc [5],0.0002 s⁻¹
same,koff,human L1CAM-hIgG1-Fc [6],0.00011 s⁻¹
